This test has as its target T1, endogenous Brd4 protein of untargeted androgenetic haploid embryonic stem cells (NC) (mouse, UniProt Q9ESU6 1-1400, limits assumed).
T1 construct: Endogenous, untagged; a mixture of the large and small isoforms in the cell lysate; also called Brd4 large protein (about 250 kDa); Brd4 small protein (110/120 kDa)
The test is described as follows: Co-IP with Brd4 antibody-coupled beads, western blot.

B1: CDK9 (enzyme, UniProt Q99J95 1-372, looked up)
chain: MAKQYDSVECPFCDEVTKYEKLAKIGQGTFGEVFKAKHRQTGQKVALKKVLMENEKEGFPITALREIKILQLLKHENVVNLIEICRTKASPYNRCKGSIYLVFDFCEHDLAGLLSNVLVKFTLSEIKRVMQMLLNGLYYIHRNKILHRDMKAANVLITRDGVLKLADFGLARAFSLAKNSQPNRYTNRVVTLWYRPPELLLGERDYGPPIDLWGAGCIMAEMWTRSPIMQGNTEQHQLALISQLCGSITPEVWPNVDKYELFEKLELVKGQKRKVKDRLKAYVRDPYALDLIDKLLVLDPAQRIDSDDALNHDFFWSDPMPSDLKGMLSTHLTSMFEYLAPPRRKGSQITQQSTNQSRNPATTNQTEFERVF
notes: Endogenous protein co-precipitated from mouse ES cell lysate
In the case of B1, the binding result was “binds”.

Values taken from US20200181605A1 (SHANGHAI INSTITUTES FOR BIOLOGICAL SCIENCES CHINESE ACADEMY …, published 2020).
